Source: patent publication US20170058032A1 (published 2017)

Target: T1, extracellular domain of human CD79b fused to Fc (huCD79becd-Fc) (UniProt P40259 29-159)
T1 chain: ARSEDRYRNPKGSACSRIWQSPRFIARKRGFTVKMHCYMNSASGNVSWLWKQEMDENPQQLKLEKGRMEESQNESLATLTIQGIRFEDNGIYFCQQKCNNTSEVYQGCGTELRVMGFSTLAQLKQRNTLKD
Assay: Biacore; Fab

B1: MA79b Fab (Fab, V domains shown)
VH: EVQLQQSGAELMKPGASVKISCKATGYTFSSYWIEWVKQRPGHGLEWIGEILPGGGDTNYNEIFKGKATFTADTSSNTAYMQLSSLTSEDSAVYYCTRRVPVYFDYWGQGTSVTVSS
VL: DIVLTQSPASLAVSLGQRATISCKASQSVDYDGDSFLNWYQQKPGQPPKLFIYAASNLESGIPARFSGSGSGTDFTLNIHPVEEEDAATYYCQQSNEDPLTFGAGTELELKR
Kd: 200 nM
